According to the supplement of paper PMC9732359:
± gives the uncertainty stated by the source.

experiment: protein stability index of a GFP-peptide fusion (yeast GPS) (PSI 1-4); higher = more stable; sorted into four equal gates, so the index is relative within each strain; conditions: doa10∆
Summary of the method: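 Each library plasmid carries Cherry plus GFP with a tiled 17-residue yeast protein peptide fused downstream, and the pooled library was carried in yeast. Mid-log cultures in leucine-free medium were sorted into four equal gates by GFP/Cherry ratio. Reads from Illumina sequencing of PCR-amplified plasmids from each gate were assigned to strains by barcodes. Per peptide, the protein stability index was computed as the summed products of gate read frequency and gate number.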

Sequence | protein stability index
QQPQTNTAPGLGNTVST [YGR119C/NUP57] | 3.03 ± 0.097
QQQIIKIRITLTSTKVK [RPS20] | 1.91 ± 0.056
QQQQDLQQQQQVVTTVA [SNF6] | 1.55 ± 0.097
QQQQQQQQQQQHIYPSS [GAL11] | 2.691 ± 0.02
QQVEGKLSQMILDKIFY [RPN6] | 2.81 ± 0.074
QREAAAEYAQLLAKRLS [RPS6A] | 1.78 ± 0.059
QRKKQSDVLRFLQRVRV [RPL15A] | 1.38 ± 0.16
QRLIFAGKQLEDGRTLS [RPS31] | 2.8 ± 0.12
QSLGLDDLQKFNGIENQ [ISW2] | 2.77 ± 0.1
QSQLNVTLSQLVSVTST [MED8] | 1.39 ± 0.025
QSSESFDDSDITKFALF [YML103C/NUP188] | 2.44 ± 0.1
QSSLDVAGLEDKFRKAC [SIR3] | 3.62 ± 0.14
QSSLSKVDIPLEVVQYI [NUT2] | 2.69 ± 0.081
QTAVTCESCSTILCTPT [RPS27A] | 1.93 ± 0.04
QTKEIKTERVEDQKVVD [RPL6B] | 3.55 ± 0.088
QTKENKRCVGVILGDAN [RPN8] | 2.89 ± 0.053
QTPAEKHAFMGTLKKDL [RPL3] | 3.08 ± 0.17
QTWSYLSLYSTDLENSS [ECM29] | 2.41 ± 0.064
QVIVDIFSVHGNTVVDG [YCG1] | 2.08 ± 0.11
QVLVTTNQDGLKFVKVR [RPB2] | 1.41 ± 0.075
QVRNQVFMLDTKRLGTP [RGR1] | 2.77 ± 0.099
QVSEVDPGRYNKVCRIE [RPB8] | 3.07 ± 0.13
QWIKFLLHTLYLRPASA [SSN8] | 1.81 ± 0.051
QWSIEIVLLDDEGKEIP [TAF14] | 1.99 ± 0.06
QYEHLIKGIREYEEWQK [YDL116W/NUP84] | 3.11 ± 0.1
QYTQRLSKLEKALDRHE [SRP68] | 2.52 ± 0.046

Sequence | protein stability index
RAAKLAAPENEKPAPVR [RPS15] | 3.21 ± 0.1
RAASVGSLKLIELLCGL [NAS6] | 2.18 ± 0.075
RADTMDFKTDVDEPMTS [YJL039C/NUP192] | 3.26 ± 0.087
RAGIIIAKLSVIPIRRG [RPS2] | 2.21 ± 0.077
RAGVSQVLNRYTYSSTL [RPB2] | 2.96 ± 0.044
RAIDSLIQKGYLQRGDD [CDC53] | 1.68 ± 0.066
RALFETKLNLHCVIEDD [RRI1] | 2.36 ± 0.11
RALKVRNAQAQREAAAE [RPS6A] | 3 ± 0.14
RARLKGKEGRIRGNLMG [RPO21] | 3.37 ± 0.097
RCFSCGKVVGDKWESYL [RPB10] | 1.73 ± 0.14
RCNDNLMRSCFYLMVSS [YJL039C/NUP192] | 1.46 ± 0.043
RCYQPFELFDNKTAHLS [SNU114] | 2.27 ± 0.1
RDALRNIKNTNEEATPI [RRP6] | 2.76 ± 0.07
RDDEPKLYQTEPSGIYS [PRE6] | 3.14 ± 0.058
RDIEKITSLYALIRRDF [CDC53] | 2.1 ± 0.035
RDREPKEPVALIETVRQ [RPN2] | 3.32 ± 0.081
REDEFGSIPSLTTQFVT [YDL088C/ASM4] | 3 ± 0.066
REDMPFTAEGIVPDLII [RPB2] | 2.49 ± 0.092
REILCYSKDAKEIYYTP [FAS2] | 2.679 ± 0.024
RELLVEGYGLRDVMCTD [RPO31] | 2.36 ± 0.063
RERDITSLFHKFILSGF [RRI2] | 1.71 ± 0.048
RERQVNEKLADLGLEKE [RPC53] | 3.2 ± 0.14
RFMRFLADRDEFIQDSA [ECM29] | 1.87 ± 0.052
RFPETMDETQTRAKIGG [RPO21] | 3.17 ± 0.26
RGFIKSEGSGSSLVQKG [RPC53] | 3.37 ± 0.1
RGFKVGLVCADTFRAGA [SRP54] | 2.19 ± 0.22

Sequence | protein stability index
RGIPRLSEDELRELDVE [SMC4] | 3.44 ± 0.14
RGMLGLLEPPAKELQGI [RPO31] | 2.08 ± 0.18
RGNKVNKQIEILTDLVN [ITC1] | 2.83 ± 0.11
RGYFITQEEVELPLEDF [RPB5] | 3.46 ± 0.19
RHFGMGPHKGKAPRILS [RPL18A] | 2.57 ± 0.14
RHHRKTEKEEDAELMAD [ISW2] | 3.5 ± 0.13
RHLPMYTEFIDSFIEKI [ITC1] | 2.4 ± 0.097
RIAVLHQKTKTLASLSI [YGL172W/NUP49] | 2.31 ± 0.081
RIDAFNALEHKYFTESD [SSN3] | 2.72 ± 0.055
RIIRKKIFIAVVWYQRL [RRI2] | 1.28 ± 0.042
RILQQLKLDKIIHVLTT [RGR1] | 1.64 ± 0.068
RKASCIWLLSYIQYLGH [ECM29] | 1.88 ± 0.06
RKCETQKQWDDIAFVLN [YCS4] | 2.96 ± 0.076
RKCQFRTPDSISVNSSS [POP1] | 2.44 ± 0.074
RKEPPATVEECVKLTVR [PRE6] | 1.45 ± 0.06
RKFERARGRRRSKGFKV [RPL18A] | 3.28 ± 0.1
RKFHELNDHIDDFEVNV [GRR1] | 3.07 ± 0.097
RKHHKKGITEEVAKKRS [RPL24A] | 3.36 ± 0.12
RKHKRVSPNAAPRQEIS [YAR002W/NUP60] | 2.92 ± 0.08
RKKARTFDSSWNWAKQS [FAS2] | 1.79 ± 0.14
RKRAHSLVSTQSSSSTR [REC8] | 2.86 ± 0.069
RKRCKGTVGNSHKTTKE [RPL11A] | 2.94 ± 0.28
RLIDLSGCENITDKTIE [GRR1] | 3.05 ± 0.068
RLKFGHRLIATHTNLER [SNF2] | 2.41 ± 0.064
RLRTLCRDSDDHKRFIV [DIS3] | 2.68 ± 0.2
RMFEKNVMLNIYPRTVI [SKI6] | 2.21 ± 0.14

Sequence | protein stability index
RMHLAPASKQGYLITPP [SSN2] | 1.36 ± 0.25
RMRIFASNEVIAKSRYW [RPL20A] | 2 ± 0.049
RNAEFKVSKNSTSFKNP [YMR153W/NUP53] | 2.79 ± 0.093
RNQVQTENVAQARIILN [YGR119C/NUP57] | 3 ± 0.1
RNSKTVREFLEKNYDRK [PRE6] | 3.08 ± 0.27
RNVEQKLNELDELILEA [NNF1] | 3.3 ± 0.062
RPFEGLFVISTEISPMA [RRP45] | 2.67 ± 0.048
RPGRIDRKIEFPPPSVA [RPT6] | 3.21 ± 0.072
RPHQSRESLIMLLEEQL [MED7] | 2 ± 0.081
RPNRRGPRNTEEKGWVP [RPS2] | 3.42 ± 0.15
RPQKLRASLVPGTVLIL [RPL6A] | 2.1 ± 0.066
RQKARTDAHTPLARNYI [RPR2] | 2.63 ± 0.054
RQNKVQHQRIVAFVCSP [RPN10] | 1.24 ± 0.069
RQPSLHRLSILSHYAKI [RPO31] | 1.74 ± 0.077
RRGAHGSELSSKIRKIH [SIR3] | 2.32 ± 0.12
RRHRNPDLQFIVISLKN [SMC1] | 1.86 ± 0.041
RRKKILNEIELDNLKLK [GRR1] | 3.04 ± 0.11
RRLHDENLMVQRTCLMT [YCS4] | 2.43 ± 0.064
RRNLRYGDRMKLAKNLQ [RPO31] | 3.15 ± 0.091
RRQAVDVSPLRRVNQAI [RPS5] | 2.63 ± 0.083
RRRKGISTGGFMSNDGP [SNU114] | 1.46 ± 0.086
RRSKQLINLAKTRVGSV [RPC82] | 3.25 ± 0.053
RRVNQAIALLTIGAREA [RPS5] | 3.21 ± 0.21
